Data taken from US20090098111A1.

Molecular target: Xatr-XatripΔN222-FLAG complex (Xenopus laevis)
Experiment: cell-based or functional assay

Xatr-XatripΔN222-FLAG complex (Xenopus laevis), sequence (Q5EGL8 whole entry, stated change not applied, one chain of several): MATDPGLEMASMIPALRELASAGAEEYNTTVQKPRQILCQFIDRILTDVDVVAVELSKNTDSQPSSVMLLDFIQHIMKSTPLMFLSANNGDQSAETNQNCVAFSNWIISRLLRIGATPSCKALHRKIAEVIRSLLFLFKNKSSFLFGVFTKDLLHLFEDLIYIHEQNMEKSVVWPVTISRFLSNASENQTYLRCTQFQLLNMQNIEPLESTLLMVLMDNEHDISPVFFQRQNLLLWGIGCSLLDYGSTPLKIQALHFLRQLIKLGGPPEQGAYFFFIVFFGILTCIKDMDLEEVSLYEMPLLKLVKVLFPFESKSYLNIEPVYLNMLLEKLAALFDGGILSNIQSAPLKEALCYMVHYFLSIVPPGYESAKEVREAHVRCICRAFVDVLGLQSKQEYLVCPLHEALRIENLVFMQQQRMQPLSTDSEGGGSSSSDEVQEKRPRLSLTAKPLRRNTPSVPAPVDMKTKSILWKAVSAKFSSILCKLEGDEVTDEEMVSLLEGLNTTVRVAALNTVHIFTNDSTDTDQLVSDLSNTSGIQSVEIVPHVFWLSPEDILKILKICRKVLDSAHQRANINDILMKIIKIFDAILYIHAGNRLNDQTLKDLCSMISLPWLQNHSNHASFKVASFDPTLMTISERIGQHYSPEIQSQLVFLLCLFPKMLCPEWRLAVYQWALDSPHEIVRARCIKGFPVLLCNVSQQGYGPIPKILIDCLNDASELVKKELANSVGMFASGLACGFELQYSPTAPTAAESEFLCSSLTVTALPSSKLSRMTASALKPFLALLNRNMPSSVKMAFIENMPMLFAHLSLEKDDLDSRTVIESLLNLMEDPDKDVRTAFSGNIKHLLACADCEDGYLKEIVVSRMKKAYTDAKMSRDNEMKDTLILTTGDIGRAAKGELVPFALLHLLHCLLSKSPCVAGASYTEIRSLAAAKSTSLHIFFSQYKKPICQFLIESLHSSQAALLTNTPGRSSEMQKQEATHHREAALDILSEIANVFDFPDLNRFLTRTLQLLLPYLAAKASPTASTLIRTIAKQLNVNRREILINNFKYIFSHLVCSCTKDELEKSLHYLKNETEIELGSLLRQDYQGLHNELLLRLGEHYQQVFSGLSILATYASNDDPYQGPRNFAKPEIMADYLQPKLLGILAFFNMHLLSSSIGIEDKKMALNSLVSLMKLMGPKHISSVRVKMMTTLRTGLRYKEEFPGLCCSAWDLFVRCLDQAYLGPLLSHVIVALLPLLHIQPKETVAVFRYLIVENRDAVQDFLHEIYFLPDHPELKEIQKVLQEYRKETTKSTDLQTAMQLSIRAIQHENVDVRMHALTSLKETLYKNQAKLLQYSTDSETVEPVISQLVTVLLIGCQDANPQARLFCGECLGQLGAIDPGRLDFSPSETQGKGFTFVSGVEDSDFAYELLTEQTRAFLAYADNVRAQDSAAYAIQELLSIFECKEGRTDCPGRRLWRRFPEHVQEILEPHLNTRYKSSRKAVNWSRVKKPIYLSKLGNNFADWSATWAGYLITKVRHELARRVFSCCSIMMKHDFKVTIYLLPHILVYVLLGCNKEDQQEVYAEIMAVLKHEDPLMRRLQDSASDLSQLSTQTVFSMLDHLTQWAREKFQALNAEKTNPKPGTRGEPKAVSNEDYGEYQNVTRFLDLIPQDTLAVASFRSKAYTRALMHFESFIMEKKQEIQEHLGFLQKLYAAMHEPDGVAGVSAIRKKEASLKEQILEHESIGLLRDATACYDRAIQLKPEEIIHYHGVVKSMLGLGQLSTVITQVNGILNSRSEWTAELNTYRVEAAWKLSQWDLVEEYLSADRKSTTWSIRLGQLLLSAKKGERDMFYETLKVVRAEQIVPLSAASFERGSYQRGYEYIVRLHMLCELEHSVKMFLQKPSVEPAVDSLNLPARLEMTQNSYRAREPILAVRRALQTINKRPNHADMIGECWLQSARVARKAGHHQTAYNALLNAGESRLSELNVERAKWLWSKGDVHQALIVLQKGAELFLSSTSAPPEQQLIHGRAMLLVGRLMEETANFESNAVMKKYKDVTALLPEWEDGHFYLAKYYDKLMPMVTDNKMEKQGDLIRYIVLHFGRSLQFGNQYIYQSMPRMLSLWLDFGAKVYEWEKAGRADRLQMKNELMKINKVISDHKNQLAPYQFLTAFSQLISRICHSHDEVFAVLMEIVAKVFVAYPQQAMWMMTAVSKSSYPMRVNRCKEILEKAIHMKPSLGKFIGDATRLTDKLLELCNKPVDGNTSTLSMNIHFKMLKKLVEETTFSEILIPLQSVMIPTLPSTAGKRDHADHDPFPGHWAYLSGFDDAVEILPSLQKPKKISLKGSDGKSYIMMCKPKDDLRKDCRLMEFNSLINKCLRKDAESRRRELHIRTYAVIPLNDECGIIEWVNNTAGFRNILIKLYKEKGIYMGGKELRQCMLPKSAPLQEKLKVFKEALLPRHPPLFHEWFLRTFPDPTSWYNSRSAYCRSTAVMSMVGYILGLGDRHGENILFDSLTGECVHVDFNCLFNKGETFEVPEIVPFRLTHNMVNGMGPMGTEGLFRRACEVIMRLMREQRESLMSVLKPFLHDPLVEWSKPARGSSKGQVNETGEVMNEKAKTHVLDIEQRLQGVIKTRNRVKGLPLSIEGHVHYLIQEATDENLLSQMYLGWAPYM

half-maximal induction of kinase activity: 10 to 15 µg/mL
Substance: His6-XtopBP1 (full-length) (from UniProt Q800K6 1-1513)
